41 sequences from the nanobody polyreactivity screen of Harvey et al. (2022) can be followed below.

This series can be described thus: yeast display, Sf9 membrane polyspecificity reagent, FACS + sequencing; frameworks hold sequencing errors. The gist of the method:
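Galactose induction of a Saccharomyces cerevisiae BJ5465 synthetic nanobody display library ran 36–48 hours. The cells were then stained for 1 hour at 4 °C with 10% biotinylated, detergent-solubilized Sf9 membrane reagent, pulled down on streptavidin microbeads and FACS-sorted into low and high (top ~1%) gates on expression and reagent-binding fluorescence. Labels for polyreactivity follow the gate of origin.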
On to “QVQLVESGGGLVQAGGSLRLSCAASGFIFRYYAMGWSRQAPGKERELVASINSGGSTYYADSVKGRFTISRDNAKNTVYLQMNSLKPEDTAVYYCAVVLQYDWAYEKSYYWGQGTQVTVSS”, for which the “polyreactivity (PSR sort gate)” value is recorded as “low polyreactivity”.
With “QVQLVESGGGLVQAGGSLRLSCAASGITFDYYAMGWYRQAPGIERELVAAIDDSGGSTYYADSVKGRFTISRDNAKNTVYLQMNSLKPEDTAVYYCAAEFFYYEYDYWGQGTQVTVSS”, the “polyreactivity (PSR sort gate)” value is “high polyreactivity”.
As for “QVQLVESGGGLVQAGGSLRLSCAASGRIFAYNTMGWYRQAPGKERELVAGITSGGSTNYADSVKGRFTISRDNAKNTVYLQMNSLQPEDTAVYYCAAVGRWGVTGSHHDAYDYWGQGTQVTVSS”, the “polyreactivity (PSR sort gate)” value was “high polyreactivity”.
Regarding “QVQLVESGGGLVQAGGSLRLSCAASGRTFGKNAMGWYRQAPGKEMEFVAAITSRGGSTYYADSVKGRFTISRDNAKNTVYLQLNSLIPVDTAVYYCYGEYKRPSQRTEHYYWGQGSQVTVSS”, the “polyreactivity (PSR sort gate)” value is on record as “low polyreactivity”.
“QVRLVESGGGLVQAGGSLRLSCAASGRIFVGYGLGWYRQAHGKERELVAAITSSGGSTYYADSVKGRFTISRDNAKNTVYLQMNSLKPEDTAVYYCAAERGYHGGVSGLYDYWGQGTQVTVSS”: the “polyreactivity (PSR sort gate)” value is given as “low polyreactivity”.
On to “QVQLVDSGGGLVQAGGSLRLSCAPSGFTIYKYVMGWDRQAPGKDREVVAAITTCGGSTYYADSVKGRFTISRDYAKNTVYLQMNSLKPEHTAVDYCNARSLHTSEGDYWGQGTQVTVSS”, for which the “polyreactivity (PSR sort gate)” value was “low polyreactivity”.
Regarding “QVQLVESGGGLVQAGGSLRLSCAASGSIFPFYAMGWYRHAPGKERELVASISSGGSTNYADSVKGRFTISRDNAKNTVYLQMNSLKPEDTAVYYCNAVVPYRWDTWFQVVYPESYDYWGQGTQVTVSS”, the “polyreactivity (PSR sort gate)” value is reported as “low polyreactivity”.
For “QVQLVESGGGLAQAGGSLRLSCAASGSTFYSYAMGWYRQAPGKERELVAGITWNDGSTYYADSVKGRFTISRDNAKNTVYLQMNSLKPEDTAVYYCNTDASPYLFDYWGHGTQVTVSS”, the “polyreactivity (PSR sort gate)” value is “low polyreactivity”.
In the case of “QVQLVESGGGLVQAGGSLRLSCAASGRILRYNAMGWYRQAPGKERELVASISGNGGSTYYADSVKGRFTISRDNAKYTVYLQMNSLKPEDTAVYYWGQGTQVTVSS”, the “polyreactivity (PSR sort gate)” value is reported as “low polyreactivity”.
Regarding “QVQLVESGGGLVQAGGRLRISCAASVRIFGVNAMGWYRQAPGKERELVAVISSGGSTYYADSVKGRFTISRDNAKNTVYLQMNSLNPEDTAVYSCYAVVGRWFPYNLSDYWGQGTQVTVSS”, the “polyreactivity (PSR sort gate)” value is reported as “low polyreactivity”.
“QVQIEESGGGLVQAGGSLRLSCAASGRTFYANVMGWSRQAPGIEWELVAAITYSGGSTYYADSVKGRFTISRDNAQNTVYVLMNCLKQEDTADYYCAADNVYTFYYWGQGTLVTVSS”: the “polyreactivity (PSR sort gate)” value is “low polyreactivity”.
Take “HGQLVESGGGLVQAGGSLRLSCAASGRTFRYYAMGWYREAPGKERELVAAITGSGGSTYYADSVKGRFTISRDNAQNTVYLQMNSLKPEDTAVYYCATRWALRWRGGYWGQGTQVTVSS”: the “polyreactivity (PSR sort gate)” value is “high polyreactivity”.
Take “QVQLVESGGGLVQAGGSLRLICAASGSIFPFYAMGWYRQEPGKERELVAAITYSGGRTYYADSVKGRFTISRDNAKNTVYLQMNSLKPEDTAVYYCAVVVIFVRYGYWGQGTQVTVSS”: the “polyreactivity (PSR sort gate)” value is “low polyreactivity”.
For the sequence “QVQLVESGGGLVQAGGSLLLSCAASGTTFDRNAMGGYRQAPGKEREIVDAIRFGGGSTNYADSVKGRFTISRDNAKNTVYLLMNSLKPEDTAVYYCNAERIWRYKYGYDYWGQGTQVTVSS”, the “polyreactivity (PSR sort gate)” value is on record as “high polyreactivity”.
“QVQLVESGGGLVQAGGSLRLSCAASGRTLIYNAMGWYRQAPGKERELVAAITGGGGRTYYADSVKGRFTISRDNAQNTVYLQMNSLKPEDTAVYYCAAGETFEMNYWGQGTQVTVSS”: the “polyreactivity (PSR sort gate)” value was “low polyreactivity”.
Turning to “QVQLVESGGGLVQAGGSLRLSCAASGRIFTQYAMGWYRPAPGKERELVAAISSSGVRTYYADSVKGRFTISRDNAKNNVYLQMNSLKPEDTAVYYCAVRRGGAYYQFGYWGQGTQVTVSS”, the “polyreactivity (PSR sort gate)” value was “high polyreactivity”.
For the sequence “QVQLVESGGGLVQAGGSLRLSCAASGRTFWLNAMGWYRQAPGKERELVATISRGGSTNYADSVKGRFTISRDNANNTVYLQMNSLKPEDTAVYYCAARRYYWLRGYNYWGQGTQVTVSS”, the “polyreactivity (PSR sort gate)” value was “high polyreactivity”.
For the sequence “QVQLVESGGGLVQAGGSLRLSCAPSGIIFRGNAMGWYRQAPGKEREFVAAISLRGSRTYYADSVKGRFTISRDNAKNTVYLQMNSLKQEDTAVYYCAATRPYRYNYWGQGTQVTVSS”, the “polyreactivity (PSR sort gate)” value is “high polyreactivity”.
Turning to “QLQLVESGGGLVQAGGSLRLTCAASGSIFEVKAMGWYRQAPGTERELVATITYSGGSTYYADSVKGRFTISRDNAKKTVYFQMNSLKPEDTAVYYCATHYVVWELYIYDYWGQGTQVTVSS”, the “polyreactivity (PSR sort gate)” value was “low polyreactivity”.
For “QVQLVESGGGLVQAGGSLRLSCAASGLIFGYYAMGWYRQAPGKERELVARITRRGGSTYYADSVKGRFTISRDNAKNTVYLQRNSLKPEDTAVYYCAADWYSPRISREYDYWGQGTQVTVSS”, the “polyreactivity (PSR sort gate)” value is recorded as “high polyreactivity”.
Take “QVQLAESGRGLVQAGGSLRLSCADSGIIYYFYAMGWYRQAPGKETEFVAAISGTGGRTYYADSVKGRFTISRDNAKNTVYLQMNSLKPEDTAVYYCNADDTPVPSIRFDYWGQGTQVTVSS”: the “polyreactivity (PSR sort gate)” value was “low polyreactivity”.
Consider “QVQLVESGGGLVQAGGSLRLSCAASGIFSRYAMGWYRQAPGKERELVAAISSGDSTNYADSVKGRFTISRDNAKNTVYLQMNSLKPEDTAVYYCATERSHLATGQGYYYVQTFYYWGQGTQVTVSS”, for which the “polyreactivity (PSR sort gate)” value is listed as “low polyreactivity”.
Consider “QVQLVESGGGLVQAGGSLRLSSAASGRIFKIYPMVWYRQAPGKERELVAAISGRGGSTYYADSVKGRFTISRDNAKNTVYLQMISLKPEDTAVYYCAAVGYGFSAYSTYDYWGQGTQVTVSS”, for which the “polyreactivity (PSR sort gate)” value was “high polyreactivity”.
Regarding “QVQLVESGGGLVQAGGSLRLSCAASGFTFTWYAMGWYRQAPGKQRELVASISRSGGSTYYAESVKGRFTISRDNAKNTVYLQMNSRKPEDTAVYYCAAVSRTRSYDYWGQGTQVTVSS”, the “polyreactivity (PSR sort gate)” value is given as “high polyreactivity”.
As to “QVQLVESGGGLVQAGGSLRLSCAASGSIFVHNAMGWYRQAPGKERELVAAISSNGGRTYYADSVKGRFTISRDNAKNTVYLQMNSLKPEDTAVYYCNAPRFVGLNVYGYDYWGQGTQVTVSS”, the “polyreactivity (PSR sort gate)” value was “high polyreactivity”.
On to “QVQLVESGGGLVQAGGSLRLSCAASGRTFLWNALGWYRQAPGKESELVARINLSGGRTYYADSVKGRFTISRDNAKNCVYLQMNSLKPEDTAVYYCAATVVRYRRDSWGQGTQVTVSS”, for which the “polyreactivity (PSR sort gate)” value is reported as “low polyreactivity”.
Take “QVQHVESARGLVHAGGSLRLSCAASGGTFQYYAMGLSRQAPGKERELVAAISSSGSTYYADSVKGRFTISRDNAKNTVYLQMNSLKPEDTAVYYCAAGHISIYYYTFYYWGQGTQVTVSS”: the “polyreactivity (PSR sort gate)” value is on record as “high polyreactivity”.
On to “QVHLEESGGGLVQEGGSHRLSCAASGGTFFSYDMGWYRQAPGKERELVAAISATGGSTYYADSVKGRFTISRDNAKNTVYLQMNSLKPEDTAVYYCNAYQESGTYLRMDYWGQGTQVTVSS”, for which the “polyreactivity (PSR sort gate)” value was “low polyreactivity”.
As for “QLQLVESVGGLDQAGGSLRLSCAASGSIFIRNAIGSYRQAPGKERELVAAISSTGSTYYADSVKGRFTISRDNAKNTVYLQMNSLKPEDTAVYYCADYYTVAMDYWGQGTQVTVSS”, the “polyreactivity (PSR sort gate)” value is “low polyreactivity”.
Consider “QVQLVESGGGLVQAGGSLRLSCAASGSIFITNAMGWYRQAPGKERELVAAISGRGGSTYSADSVKGRFTISRDNAKNTVYLQMNSLKPEDTAVYYCNAYSYRVSGYDYWGQGTQVTVSS”, for which the “polyreactivity (PSR sort gate)” value was “high polyreactivity”.
Turning to “QVQLVESGGGLVQAGGSLRLSSAASGGIFRYNAMGWYRQAPGKERELVAGISYRGGTTYYADSVKGRFTISRDNAKNTVYLQMNSLKPEDTAVYYCAAAASSPGGWFYYWGQVTQVTVSS”, the “polyreactivity (PSR sort gate)” value is reported as “high polyreactivity”.
Consider “QVQLVESGGGLVQAGGSLRLSCAASGLTFQENAMGWYRQAPGKERELVASITPIGGSTYYADSVKGRFTISRDNAKNTVYLQMKSLKPEDTAVYYCAARSPIYATYGHDYWGQATQVTVSS”, for which the “polyreactivity (PSR sort gate)” value is given as “low polyreactivity”.
In the case of “QVQLQESGGRLVQAGGSMRLSCAASGTISDSGLMGWYRQAPGKERELVAGISSGGITNYADSVKGRFTISRDNAKNTVSLQMNSLKPEDTAVYWGQGTQVTVSS”, the “polyreactivity (PSR sort gate)” value is reported as “low polyreactivity”.
Consider “QVQLVESGGGLVQAGGSLRLSCAASGYIFLRNAMAWYTKAPGKERELVAAIRRTGGSTYYADSVKGRFTISRDNAKNTVYLQMNSLKPEDTAVYYCAKRSYTGYEYWGQGTQVTVSS”, for which the “polyreactivity (PSR sort gate)” value is listed as “low polyreactivity”.
The value for “QVQLVESGGGLVQAGGSLRLSCAASGFIFGSYAMGWYRQAPGNERELVAAISDSGDSTYYADSVKGRFTISRDNAKNTVSLQLTRLKPEDTAVYYCNRGYRWRRYENYYWGQVTQVTVSS” was “high polyreactivity”; that for “QVQLVESGGGLVQAGGSLRLICAASGRTFRYYAMGWYRQAPGKERELVASISDGGSTNYADSVKGRFTISRDNAKNTVYLQMNSLKPEDTAVYYCNAKAYVWYLYDEFGYWGQGTQVTVSS” was “low polyreactivity”.
Take “QVQLVESGGGLVQAGGSLSLSCAASGSTFRYYTMGWYRQAPGKERELVAAISWTGGGTYYADSVKGRFTISRDNAKNTVYLQMNSLKPEDTAVYYCAASYYYELFRFDYWGQGTQVTVSS”: the “polyreactivity (PSR sort gate)” value is given as “high polyreactivity”.
In the case of “QVQLVESGGGLDQAGGSLRLSCAASGSILPYYAMGWYRQAPGKERELVATITDGTDTYYADSVKGRFTFSRDNAKNTVYLQMNSLKQEDTAVYYCDRKQYWGYDYWGQGTQVTVSS”, the “polyreactivity (PSR sort gate)” value is “low polyreactivity”.
Regarding “QVQLVESGGGLVKAGGSLRLSCADSGSIFWYYTMGRYRQAPGKEREFVAAISWSGGGSTYYADSVKGRFTISRENAKYTVYLQMNSLKPEDTAVYYCNGDWTSYGFVTRLDYWGHGTQVTVSS”, the “polyreactivity (PSR sort gate)” value is reported as “low polyreactivity”.
The value for “QVQLVESGGGLVQAGGSLRLSCAASGYTFSFYAMGWYRQATGKERELVAAISRSGGSTYYADSVKGRFTISRDNAKNTVYLQMNSLKPEDTAVYYCAARWPGAYHEYGYWGQGTQVTVSS” was “high polyreactivity”; that for “QVQLVESGGGLVQAGGSLRLSCAASGLTFGRYAMGWYRQAPGKERELVAAITASGGITYYADSVKGRFTISRDNAKNTVYLQMNSLKPEDTAVYYCAADGEVKYDYWGQGTQVTVSS” was “low polyreactivity”.
